US20220313819A1, “COMBINATION THERAPY FOR THE TREATMENT OF SOLID AND HEMATOLOGICAL CANCERS” (Arch Oncology, Inc., priority 2019, published 2022)
Blank lines part the entries; values can stand above or below the molecule they belong to.

Columns and labels:
[1] = molecular target: T1, His-CD47 (recombinant human CD47) (Homo sapiens, UniProt Q08722); experiment: Solid-phase CD47 ELISA at pH 6 or pH 8; format: binding; conditions: pH 6.0 versus pH 8.0
T1 construct: His; purchased AcroBiosystems
Protocol: Binding by soluble anti-CD47 mAbs to immobilized recombinant human CD47 and to human CD47 expressed on cells was measured in vitro. For the in vitro binding to recombinant CD47, His-CD47 (AcroBiosystems) was adsorbed to high-binding microtiter plates overnight at 4° C. The wells were washed and varying concentrations of anti-CD47 mAbs were added to the wells in buffers with a of either pH 6 or pH 8 for 1 hour. The wells were washed and then incubated with HRP-labelled secondary antibody for 1 hour at pH 6 or pH 8 followed by addition of peroxidase substrate. The apparent affinities were calculated using non-linear fit model (Graphpad Prism).

[2] = tested on: hRBCs; experiment: Hemagglutination of washed human red blood cells; format: cell-based
Protocol: Hemagglutination of hRBCs was assessed following incubation of hRBCs with various concentrations of chimeric and humanized VLX4, VLX8, and VLX9 mAbs in vitro essentially as described by Kikuchi et al. Biochem Biophys Res. Commun (2004) 315:912-918. Blood was obtained from healthy donors, diluted (1:50) in PBS/1 mM EDTA/BSA and washed 3 times with PBS/EDTA/BSA. hRBCs were added to U-bottomed 96 well plates with equal volumes of the antibodies (75 μl of each) and incubated for 3 hrs at 37° C. and overnight at 4° C.

[3] = tested on: Jurkat cells; experiment: Phagocytosis of tumor cells by human macrophages; format: cell-based; conditions: 1 μg/ml mAb
Protocol: Human derived macrophages were derived from leukapheresis of healthy human peripheral blood and incubated in AIM-V media (Life Technologies) for 7-10 days. For the in vitro phagocytosis assay, macrophages were re-plated at a concentration of 1×10^4 cells per well in 100 ul of AIM-V media in a 96-well plate and allowed to adhere for 24 hrs. Once the effector macrophages adhered to the culture dish, the target human cancer cells (Jurkat) were labelled with 1 μM 5(6)-Carboxyfluorescein diacetate N-succinimidyl ester (CFSE; Sigma Aldrich) and added to the macrophage cultures at a concentration of 5×10^4 cells in […] of AIM-V media (5:1 target to effector ratio). VLX4, VLX8, and VLX9 CD47 mAbs (1 μg/ml) were added immediately upon mixture of target and effector cells and allowed to incubate at 37° C. for 2-3 hours. After 2-3 hrs, all non-phagocytosed cells were removed and the remaining cells washed three times with phosphate buffered saline (PBS; Sigma Aldrich). Cells were then trypsinized, collected into microcentrifuge tubes, and incubated in 100 ng of allophycocyanin (APC) labelled CD14 antibodies (BD Biosciences) for 30 minutes, washed once, and analyzed by flow cytometry (Accuri C6; BD Biosciences) for the percentage of CD14^+ cells that were also CFSE^+ indicating complete phagocytosis.

[4] = tested on: Jurkat cells; experiment: Cell death by soluble mAb, annexin V / 7-AAD; format: cell-based, human; conditions: 1 μg/ml, 24 hrs
Protocol: Induction of cell death by soluble anti-CD47 mAbs is measured in vitro (Manna et al. (2003) J. Immunol. 107 (7): 3544-53, Kikuchi et al. Biochem Biophys Res. Commun. 315: 912-8, 2004), Pettersen et al. J. Immuno. 162: 7031-7040, 1999), Manna et al. Cancer Research, 64: 1026-1036, 2004). For the in vitro cell death assay, 1×10^5 transformed human T cells (Jurkat cells) were incubated with soluble humanized VLX4, VLX8, and VLX9 CD47 mAbs (1 μg/ml) for 24 hrs at 37° C. As cell death occurs, mitochondrial membrane potential is decreased, the inner leaflet of the cell membrane is inverted, exposing phosphatidylserines (PS), and propidium iodide (PI) or 7-aminoactinomycin D (7-AAD) is able to incorporate into nuclear DNA. In order to detect these cellular changes, cells were then stained with fluorescently labelled annexin V and PI or 7-aminoactinomycin D (7-AAD) (BD Biosciences) and the signal detected using an Accuri C6 flow cytometer (BD Biosciences). The increase in PS exposure is determined by measuring the percent increase in annexin V signal and the percent of dead cells by measuring the percent increase in PI or 7-AAD signal. Annexin V positive (annexin V^+) or annexin V positive/7-AAD negative (annexin V^+/7-AAD^−) cells are observed in early stages of cell death and annexin V positive/7-AAD positive (annexin V^+/7-AAD^+) cells are dead cells. […]

- pH dependent binding to His-CD47 [1]: did not display pH dependence
B1: VLX9 IgG (murine): murine VLX9 anti-CD47 antibody (antibody, V domains shown)
VH: QVQLQQFGAELAKPGASVQMSCKASGYTFTNYWIHWVKQRPGQGLEWIGYTDPRTDYTEYNQKFKDKATLAADRSSSTAYMRLSSLTSEDSAVYYCAGGGRVGLGYWGHGSSVTVSS
VL: DVFMTQTPLSLPVSLGDQASISCRSSQNIVQSNGNTYLEWYLQKPGQSPKLLIYKVFHRFSGVPDRFSGSGSGTDFTLKISRVEAEDLGVYYCFQGSHVPWTFGGGTKVEIK

B2: VLX9 IgG2 (xi): chimeric VLX9 anti-CD47 mAb, human IgG2 (antibody)
heavy: QVQLQQFGAELAKPGASVQMSCKASGYTFTNYWIHWVKQRPGQGLEWIGYTDPRTDYTEYNQKFKDKATLAADRSSSTAYMRLSSLTSEDSAVYYCAGGGRVGLGYWGHGSSVTVSSASTKGPSVFPLAPCSRSTSESTAALGCLVKDYFPEPVTVSWNSGALTSGVHTFPAVLQSSGLYSLSSVVTVPSSNFGTQTYTCNVDHKPSNTKVDKTVERKCCVECPPCPAPPVAGPSVFLFPPKPKDTLMISRTPEVTCVVVDVSHEDPEVQFNWYVDGVEVHNAKTKPREEQFNSTFRVVSVLTVVHQDWLNGKEYKCKVSNKGLPAPIEKTISKTKGQPREPQVYTLPPSREEMTKNQVSLTCLVKGFYPSDIAVEWESNGQPENNYKTTPPMLDSDGSFFLYSKLTVDKSRWQQGNVFSCSVMHEALHNHYTQKSLSLSPGK
light: DVFMTQTPLSLPVSLGDQASISCRSSQNIVQSNGNTYLEWYLQKPGQSPKLLIYKVFHRFSGVPDRFSGSGSGTDFTLKISRVEAEDLGVYYCFQGSHVPWTFGGGTKVEIKRTVAAPSVFIFPPSDEQLKSGTASVVCLLNNFYPREAKVQWKVDNALQSGNSQESVTEQDSKDSTYSLSSTLTLSKADYEKHKVYACEVTHQGLSSPVTKSFNRGEC
- HA hRBC ([2]; hemagglutination, chimeric (xi) mAbs, Table 1): Yes
- visible hemagglutination of hRBCs ([2]; result in words, mAb concentrations from 50 μg/ml down): caused visible hemagglutination
- phagocytosis of Jurkat cells by human macrophages [3]: increased phagocytosis
- PS exposure and cell death of Jurkat cells (annexin V^+, annexin V^+/7-AAD^−, annexin V^+/7-AAD^+) [4]: induced increased PS exposure and cell death
